The values that follow come from a protein production outcome set (Wang et al. 2014).

The series is described as follows: label from the status in PepcDB records.
Turning to “MDSYFLFFIILTSIFIVPQILKRFNVPTITATMLAGIIIGPFGLNLIQTSSTLDTFASFGVIFLMFLAGMEVDNETLKDEFKNSLVLSLFSMLIPAIGGYFIGQYFGLDFIGSLLYAVIFSSHSVGIVYALMDELGLIKSRFGTTVISASVVIDLISLIVISILIKMGGSGINSDIIPFIVLIVAYIIALLIIIPLISKLILNELQKFHVQKIHFILLIILISIIVGEHIGIHPIIGAFIIGIAVSEELTKEEHDKILNENLNAIGYGIFIPLFFLNLGMTTDISVIFNFDNLSLIFVSVVSLISLKIISGYFSLRILDYNKLKSFCGGLLTVPSLTASLVGATLGRDLGILPEKFFVAVVVIALLTSTVAPIYVKNLVSKNYDKLKLN”, the protein production result was “failed”.

For “MGWFFVFCAAISEIVGVIGLKMYSKDKTLANGAIYIGGFATSFAFLYTSFLFLQVSVAYAVWIGIGTAGAVLLNMFLFGESKSKARIISVFLIVCGVTGLKALS”, the protein production result was “failed”.

With “MAKFNQDLNEVLNQALNLALDLNHALCTTEHVLLVILEHESGEKIIGTLERDDYDKLKQILKDYLLQYVPLKSDPAKMPARSFVLLRMLKRMYASCFESVGVEELLILMLDHPDCYASKLMDSFGIARLYSNPALLDLDNHGIPNDINDNEEAPKNTPLKKYAKNLSALAQDNALDPVIGREEEILRVIEILGRRKKNNPLLIGEAGVGKTSIAEALALKIAQKEVPEFLQEYEVYSLDLALMVAGAKYRGDFEKRLKKTLKEIQQNGRIILFIDEIHTLLGTGSSNAGSLDAANILKPVLTDGSLKCLGATTFEEYRSVFEKDKAFNRRFSVIKVEEPSKEACYLILKKIAPLYEEHHQVRYDESVFKACVDLTSDYMHDKFLPDKAIELLDEVGSRKKISPKKGKKIGVDDVKETLALKLKIPKMRLSSDKKALLRNLEKSLKNKIFAQAEAISLVSNAIKIQHCGLSAKNKPVGSFLFVGPSGVGKTELAKELALNLNLHFERFDMSEYKEAHSVAKLIGSPSGYVGFEQGGLLVNAIKKHPHCLLLLDEIEKAHSNVYDLLLQVMDNATLSDNLGNQASFKHVILIMTSNVGSKDKDTLGFFSAKNTKYDKAVKELLTPELRSRIDAIVPFNALSLEDFERIVSVELDKLKALALEQDITLKFHKEVVKFIAQKSYQTTLGAREIKKIIHNEIKTKLSDILLLQSFKKPCKIACLLEKNQLVLKEIKRAQKVKENDF”, the protein production result is on record as “failed”.

Turning to “MELFTLGACRQVGKSCFVLKTSEGLVMLDCGLHPSYQDDRRYPNFSLAFSYGPLKAVFITHCHADHVGALPILTERWGYDGPIYMSEPTRKLSYYILEECVGSWGGDDEWTDSSRSEWSYTQREVESCLTKVTIMEPGQSISVGENVQVHSWMAGHVLGAYMFSIVVDNHRILYTGDFTSCPTFHLPPARVDDIPYPPDVILSEATYATSFKDGRLNNQVEFIQNVLDCLLDGGKVLVPVFAIGRAQELLLLLGK”, the protein production result is given as “not failed”.

With “MKPDIYENNREGILCVYKNEKWLVCIKNWKPDNDIEGIAHLEIHHSTDEQFILSAGKAILITAEKENDKFNIELTLMEKGKVYNVPAECWFYSITQKDTKMMYVQDSNCSMDNSDFCDLSKEEIEYIQTNARKLFEK”, the protein production result is “not failed”.

Consider “MVHHDGTLQALITAYQKTPAFTDLAEATRKGYIRHIRQIEADFGDMPVQALADPRVRGEFLDWRDRLAQKSKRSADYAFSVLARILSWAHDRRKIPVNPCEKPGRLEHHHHHH”, for which the protein production result is on record as “failed”.

For the sequence “MTGEWKECKLREIASEIKSGGTPSTKHQEYYGGIIPWLNTKEIHFNRIRDTDIKITEGGLNNSSAKWVKENSIIVAMYGATAGKIAINKIPLTTNQACCNITPDSEKADYNFVYYNLCHRYDELVNLSCGAAQQNLNVGLITNLDIILPPITEQCAIASVLSSLDDKIDLLHRQNKTLEAMAETLFRQWFVEEADEDWEEGFLPDEFDFTMGQSPPGTSYNQEGVGKPMFQGNADFGFRFPEERVYTTEPTRLAYPHDTLISVRAPVGAQNMAKVECCIGRGVSAFRYKANNDFYTYTYFKLRSLMDEIKKFNDEGTVFGSISKTDFLQMGIAIPPEDIIEKFEIHAKPLNDKVIENCIQIKLLEVMRDTLLPKLMSGEVRVEG”, the protein production entry is “failed”.

On to “MRVYDMHVHLHEYSDREVEEILDADKSLVVVAVSDDLESAWRTLDLWHTFGGRVVPCLGFHPWNVREGRVWEAWEVLRLAYRYGVPCLGEVGLDRRFVDEYTWRVQNEVFDAFVQLAEDMGVMLNIHAPDAWKHVAHRIGWTSRARFMYHWYTGPATLPRALPEGRVWFSINSAIRVQEKSVRVAREIPLRSLVVESDGPYNYRGLRLSPLMVRETVKLVAEARGEDPGRLMEAISLNSERLLGLL”, for which the protein production entry is recorded as “failed”.

“MTRYLRLSGLEPFVLTPDIPFVNVGERTNVTGSARFRKLITNRDYAAALEVARDQVQNGAQILDVNMDEGLIDSKAAMVEFLNLIASEPDIARVPLMIDSSKWEVIEAGLKCVQGKPVVNSISLKEGEESFRRQAGLCLAYGAAVVVMAFDEEGQADSFARKTTICARAYRILVEEVGFPPEDIIFDPNVFAVATGIEEHDNYGVDFIEAARWIRANLPHAHVSGGVSNLSFSFRGNEPVREAMHAVFLYHAIRAGMDMGIVNAGQLAVYDQIDPDLREACEDVVLNRKPKQGGTATERLLALAER”: the protein production result is “failed”.

On to “MTWSHWEITPFITSVFFILGVLTLFWVSQNWIINFFNTHHWRVDQSLITDWYGLIYMMLFVFGMQTAVVGQNDAWIFMNFQLIGLTFCGYFLNVRVRYYYLYPLVFIFMGFNHSLYYWESWGHAVTLILFFTALGRLRKHVPLQTKQGQVTLYLVTCAGFGAVLWWFMKLKFNLSWATYWQEWTYLLVFASLLYIYASMLSANAHLKQNLVAFANHDALTKIENFAAYKTAINYQVTSSRKNGSQLTMLMFDIDHFKQVNDTYGHLAGDKILQHVAQVATIVFHANNPQISLYRTGGEEFNVIFPNYDLTEALAVAEQLFAAINHIAVPVNDHQIQLSISIGLSELAADDQSPTAFYQRVDANLYHSKKHGRMQITAK”, for which the protein production result is reported as “failed”.

Consider “MRLTARSEPSSAPFPSGTGRQIGADCNGPSACQALQFTPFCPSRDNEMSDWSLDQARKTYSIPHWADGYFDVNDAGHVVVRPTADGPAVSLPEVVDAARAAGAKLPLLVRFPDILGQRLGKLQAAFAQAQADWDYAGGYTAVYPIKVNQHRGVAGTLASHHGEGFGLEAGSKPELMAVLALSRPGGLIVCNGYKDREYIRLALIGRKLGLQTFIVIEKPSELNLVLEEARALDVKPGLGVRMRLASLGAGKWQNSGGDKAKFGLSPRQVLDLWKSLRDTEYADSLNLLHFHMGSQISNVRDIANGMREATRYFVELSRLGAKISHVDVGGGLGIDYEGTRSRSYCSINYGLHSYASNIVQPLASACEEHGLPPPRIVTECGRAMTAHHAVLIANVSEVEQAPEGRVPDAHDDEPAAIRHLREIHDELDVRPAVELFQEAQHFHAEGLSAYALGQIDLTHRARIDDLFYAIAHGVRARLSFDEKSHRPVLDELNERLVDKYFVNFSVFESIPDVWAIDQVFPIVPIERLNEAPQRRGIIADMTCDSDGMVKTYVENESLDSSLPLHGLNPGESYRIGFFLVGAYQEILGDIHNLFGDTDAVEVAVDGTGYRIAQQRRGDTTDVMLDYVGYQLDTLRATYAERIAAAQLPPERAQELHDALEAGLTGYTYLSDEPLG”, for which the protein production result was “failed”.

As to “MNKHFLETLLQKHQQAGTFPSTSDICRLVTRILLVLFPEQTQAKYKDVADVEIQMGVYQKELTRLLGSMQKDLPAPANELSDAFMNELSVIYDKLLLDIQAILNGDPAARSEFEVIRAYPGFYAIAFYRMAHALYKLNIPLMPRIIMEYAHSKTGIDIHPGATIGKNFYIDHGTGIVIGETAHIGDNVKVYQGVTLGALSVSKDKADTKRHPTIEDNVIIYSGATILGGKTVVGHDSIIGGNVWLTESVQPFTRVYHKAQIEVIIKNADPSLNETENNEEAIRKMKKAESENTKKNS”, the protein production entry was “failed”.

For “GLTTPLRELVENGFREGRIKIISSTPTLAAGLNLPARRVIIRSYRRYSSDSGMQPIPVLEYKQMAGRAGRPRLDPYGEAVLLAKSYEEFVFLFEKYIEAGAEDIWSKLGTENALRTHILSTISNGFA”, the protein production result was “failed”.

For the sequence “MVRKLRHFGDRLREEPDKFRFVLSRALWVTGLCRLITFSFPAGYRMRFYPSAISAGLWRDRNFRSEDADFVAGYLRPGETFVDVGANVGQLSLVAARRVTSSGRTIAIEAHPRTCNFLRGNVRLNGLPIEIHNVAVGSECGELFFTNFRSDDMNFAYAASPRNGSALRVPVATLDSIIGERPVDLLKVDVEGFECDLLRGAAQTLHNCRCLYIEDSEPNLRRAGSSRVELYDRLSEGGFELFHVRGKRLERVSVQAAGPLTENLIAVRGSDLPDALARTGFCLA”, the protein production result is “failed”.

As for “MLRQSMNDYFEQPWYLTYADAERLSDLRDETLTLRDEEVTGHVPTEVEYEELQQVNDELAQRIGDMLKVHKEQGAAIDLALVLRDYLASHPRTHHFDLARMVVDQAVRLGYSESDYRAIQPDWTAINDFGAKVQANVIDRYLEHHHHHH”, the protein production result is recorded as “not failed”.

With “GVTYLLAKRKILYFEAVESKIFVYTEKDVYETTWKLYELEEKFKDSSFFRCSKSMILNIEWIEKIAPGFHGKFEASLFNREKVIISRQYAKILKQKLNLGGKGK”, the protein production entry is listed as “failed”.

With “MMIARTLSIFIGTLLLATCSIPTRLNIPTIAITDHPKYKLLLILIDGLRADALEHGQAPQLARLASDGVHARWMTPSYPALTLPNAYTLITGLRPDHHGIVHNTMEDPLLGAFESERQEAISNGRWWGGEPIWVSAEHAGIRSATFLWPGSEASIAGTRPSRWYAYNKHISADTQITQALRWLNERGPDAPRLVILRFEQVNTAGDNFGPDSPQYAAAVNMIDSAIGRLIDSLRQHGKLTDTDVIVVSDQGIAPIPGDHAVPLERIVQLSDVHVVSDGQVLGITPLPGHESKVEAMVLGAHATYDCWRKQALPTHWHYGTHPRIPNIVCQMHEGWNALSAAQITKRNPLQMGGSSGFDPMLPSMRAVFLANGPSFMPNLLLNPINNVDIYPLLARLLGIAMAPNDGNPRALLQALRTSNTANGYTYSKRNALHLEHHHHHH”, the protein production entry is reported as “failed”.

Consider “MEKKILKPLRKTVSELLCVICTSLLLISLFSFTALAGDINTSPNINSDDKISASVVSKLTEISGDEQIPVIITLPNQKIAFNTAAGKYQIESEQKNLIKFLENEKSKNKVNKIKPIKIINAVAAKVNPEVLASLAGRSDVSKIELDEVVSIVGQSEPSFKKIAASTTLSTAASTNAWGVDKIDAPAVWQQGINGKGITVAVVDTGIDATHPDLDDLDDNPSTNDPKVVGWVDYINSQSSAYDDNGHGTHVAGIVSGTGDNGIQTGVAPGTKLLVAKVFDSEGDGYLSTCILGFEWAVNNNARIISFSGGSPEHDSLFTTMINKVVAAGVVPVIAAGNDGDGSGTITCPGDELNSLTVGATDSSDAIADFSSRGPVTLDDQTYIKPDISAPGVSIPSTYPGDGYAYGDGTSMAAPHVSGTVALILEKKPTMTPAEVKKELESTAVDLGSAGKDNDYGSGRIDAYDAVFGKGPVANFYAKPTSGKVPLTVAFTDTSTGTPTKWRWNFGDGSKSFLQNPKHKYSKAGTYTVNLTVKNAKGKNTVTKTDYIVVISKPTAAFSASPTSGKAPLTVAFTDKSSGNPTAWKWSFGDGTISREKNPTHQYLQEGKYKITLTVSNAAGKSTTKKINYIKVTTNTRPGIYSESK”, for which the protein production entry is “failed”.

For “MNYFIVEVSEQEVKREKEKARELRRSQWWKNRIARGICHYCGEIFPPEELTMDHLVPVVRGGKSTRGNVVPACKECNNRKKYLLPVEWEEYLDSLESEPSDGEGLEHHHHHH”, the protein production entry is reported as “not failed”.

Take “QGEEMNRSQEVTRDEESTRSEEVTREEMAAAGLTVTVTHSNEKHDLHVTSQQGSSEPVVQDLAQVVEEVIGVPQSFQKLIFKGKSLKEMETPLSALGIQDGCRVMLIGKKNSPQEEV”: the protein production result is reported as “failed”.
